B1: Mothers against decapentaplegic homolog 4 (Homo sapiens), Q13485 (parent)
chain: MDNMSITNTPTSNDACLSIVHSLMCHRQGGESETFAKRAIESLVKKLKEKKDELDSLITAITTNGAHPSKCVTIQRTLDGRLQVAGRKGFPHVIYARLWRWPDLHKNELKHVKYCQYAFDLKCDSVCVNPYHYERVVSPGIDLSGLTLQSNAPSSMMVKDEYVHDFEGQPSLSTEGHSIQTIQHPPSNRASTETYSTPALLAPSESNATSTANFPNIPVASTSQPASILGGSHSEGLLQIASGPQPGQQQNGFTGQPATYHHNSTTTWTGSRTAPYTPNLPHHQNGHLQHHPPMPPHPGHYWPVHNELAFQPPISNHPAPEYWCSIAYFEMDVQVGETFKVPSSCPIVTVDGYVDPSGGDRFCLGQLSNVHRTEAIERARLHIGKGVQLECKGEGDVWVRCLSDHAVFVQSYYLDREAGRAPGDAVHKIYPSAYIKVFDLRQCHRQMQQQAATAQAAAAAQAAAVAGNIPGPGSVGGIAPAISLSAAAGIGVDDLRRLCILRMSFVKGWGPDYPRQSIKETPCWIEIHLHRALQLLDEVLHTMPIADPQPLD
partner: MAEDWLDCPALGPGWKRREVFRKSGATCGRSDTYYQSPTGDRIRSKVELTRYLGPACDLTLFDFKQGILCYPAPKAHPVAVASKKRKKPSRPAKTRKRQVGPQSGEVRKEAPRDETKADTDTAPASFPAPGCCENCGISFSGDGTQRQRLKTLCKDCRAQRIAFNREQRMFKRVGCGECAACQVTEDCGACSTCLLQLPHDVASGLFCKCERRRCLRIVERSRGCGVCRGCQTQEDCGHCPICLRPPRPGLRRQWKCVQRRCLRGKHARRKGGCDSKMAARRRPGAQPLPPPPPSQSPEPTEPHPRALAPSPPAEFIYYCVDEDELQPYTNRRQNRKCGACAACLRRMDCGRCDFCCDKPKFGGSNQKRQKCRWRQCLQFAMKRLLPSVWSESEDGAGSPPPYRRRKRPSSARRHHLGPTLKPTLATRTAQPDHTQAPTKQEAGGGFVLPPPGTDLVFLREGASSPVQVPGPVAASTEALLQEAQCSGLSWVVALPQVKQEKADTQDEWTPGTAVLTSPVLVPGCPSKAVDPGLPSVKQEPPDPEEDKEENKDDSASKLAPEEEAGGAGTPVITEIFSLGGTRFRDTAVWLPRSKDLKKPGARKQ
B2: Mothers against decapentaplegic homolog 4 (Homo sapiens), Q13485 (parent)
chain: B1 chain
partner: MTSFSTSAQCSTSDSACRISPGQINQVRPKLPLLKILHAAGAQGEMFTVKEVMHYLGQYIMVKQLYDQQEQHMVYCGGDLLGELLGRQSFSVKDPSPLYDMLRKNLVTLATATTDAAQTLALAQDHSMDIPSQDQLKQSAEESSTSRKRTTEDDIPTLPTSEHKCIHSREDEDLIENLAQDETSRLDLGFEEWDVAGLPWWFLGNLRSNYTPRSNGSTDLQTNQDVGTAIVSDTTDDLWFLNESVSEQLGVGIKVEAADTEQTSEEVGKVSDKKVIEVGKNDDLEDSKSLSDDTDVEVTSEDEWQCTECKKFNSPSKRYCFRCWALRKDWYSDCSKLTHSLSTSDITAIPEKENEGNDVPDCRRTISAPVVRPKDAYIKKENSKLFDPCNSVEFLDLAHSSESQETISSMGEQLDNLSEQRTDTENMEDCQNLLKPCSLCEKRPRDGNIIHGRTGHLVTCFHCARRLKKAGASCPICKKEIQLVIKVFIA
B3: Mothers against decapentaplegic homolog 4 (Homo sapiens), Q13485 (parent)
chain: B1 chain
partner: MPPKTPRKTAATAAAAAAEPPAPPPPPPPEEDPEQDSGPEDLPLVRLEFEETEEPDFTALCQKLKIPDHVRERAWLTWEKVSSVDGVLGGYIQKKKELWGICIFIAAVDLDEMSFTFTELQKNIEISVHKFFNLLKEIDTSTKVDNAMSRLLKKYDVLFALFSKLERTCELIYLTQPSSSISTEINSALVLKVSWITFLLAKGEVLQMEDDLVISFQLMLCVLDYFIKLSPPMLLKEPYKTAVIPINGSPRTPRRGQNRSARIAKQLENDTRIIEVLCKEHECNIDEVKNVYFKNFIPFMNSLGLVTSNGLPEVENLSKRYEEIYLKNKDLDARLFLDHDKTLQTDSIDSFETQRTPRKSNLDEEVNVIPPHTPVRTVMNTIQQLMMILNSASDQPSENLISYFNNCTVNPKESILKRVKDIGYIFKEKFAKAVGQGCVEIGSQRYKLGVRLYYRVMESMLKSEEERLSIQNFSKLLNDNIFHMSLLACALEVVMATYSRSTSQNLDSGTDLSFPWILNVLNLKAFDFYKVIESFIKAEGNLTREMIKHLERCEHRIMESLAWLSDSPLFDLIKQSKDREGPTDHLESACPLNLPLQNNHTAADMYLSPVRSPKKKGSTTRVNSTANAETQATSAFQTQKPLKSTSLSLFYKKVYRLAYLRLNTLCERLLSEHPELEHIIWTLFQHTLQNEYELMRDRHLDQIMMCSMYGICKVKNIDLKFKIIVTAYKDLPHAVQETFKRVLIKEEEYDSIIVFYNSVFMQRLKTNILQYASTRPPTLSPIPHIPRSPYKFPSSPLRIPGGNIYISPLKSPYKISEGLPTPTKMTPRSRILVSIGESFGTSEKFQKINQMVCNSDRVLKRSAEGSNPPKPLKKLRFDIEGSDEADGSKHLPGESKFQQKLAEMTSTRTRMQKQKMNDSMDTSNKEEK
B4: Mothers against decapentaplegic homolog 4 (Homo sapiens), Q13485 (parent)
chain: B1 chain
partner: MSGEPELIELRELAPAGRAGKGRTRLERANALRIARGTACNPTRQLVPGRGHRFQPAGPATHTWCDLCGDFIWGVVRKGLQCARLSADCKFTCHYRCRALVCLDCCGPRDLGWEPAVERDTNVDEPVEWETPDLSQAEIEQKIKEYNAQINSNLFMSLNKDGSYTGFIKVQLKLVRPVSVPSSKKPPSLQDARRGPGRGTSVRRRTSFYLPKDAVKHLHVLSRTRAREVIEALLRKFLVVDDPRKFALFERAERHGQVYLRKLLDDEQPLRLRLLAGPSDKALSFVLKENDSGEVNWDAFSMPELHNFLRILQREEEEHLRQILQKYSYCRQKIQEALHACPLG
B5: Mothers against decapentaplegic homolog 4 (Homo sapiens), Q13485 (parent)
chain: B1 chain
partner: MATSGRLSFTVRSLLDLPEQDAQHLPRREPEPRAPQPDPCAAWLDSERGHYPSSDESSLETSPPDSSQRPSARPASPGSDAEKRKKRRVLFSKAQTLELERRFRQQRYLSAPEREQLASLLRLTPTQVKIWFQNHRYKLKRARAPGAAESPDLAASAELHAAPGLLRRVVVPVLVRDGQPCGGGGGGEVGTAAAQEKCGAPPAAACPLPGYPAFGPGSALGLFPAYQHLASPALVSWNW

In the first assay the parent is B1. The conditions noted are these: with mbd1_human MBD1, Q9UIS9.
On to R361C, for which the “effect of a mutation on the interaction” value is “with no effect”.

In a further assay the parent is B1. The note with it: with mbd1_human MBD1, Q9UIS9. This is another data set of the same source.
As for R361H, the “effect of a mutation on the interaction” value is recorded as “with no effect”.

In another assay the parent is B2. The note with it: with mdm4_human MDM4, O15151.
Regarding G386D, the “effect of a mutation on the interaction” value is recorded as “with no effect”.

A further assay covers variants of B2. The conditions noted are these: with mdm4_human MDM4, O15151. The source holds these as a separate data set.
Turning to R361H, the “effect of a mutation on the interaction” value is “with no effect”.

The variants in another assay derive from B2. The note with it: with mdm4_human MDM4, O15151. The source holds these as a separate data set.
In the case of D351H, the “effect of a mutation on the interaction” value is given as “with no effect”.

The variants in the next assay derive from B3. The conditions noted are these: with rb_human RB1, P06400.
D351H: the “effect of a mutation on the interaction” value is “with no effect”.

In a further assay the parent is B4. The note with it: with rasf1_human RASSF1, Q9NS23.
For the variant D351H, the “effect of a mutation on the interaction” value is listed as “with no effect”.

In a further assay the parent is B4. The conditions noted are these: with rasf1_human RASSF1, Q9NS23. This is another data set of the same source.
Consider G386D, for which the “effect of a mutation on the interaction” value is “with no effect”.

In the next assay the parent is B4. The note with it: with rasf1_human RASSF1, Q9NS23. The source holds these as a separate data set.
Turning to R361C, the “effect of a mutation on the interaction” value is “with no effect”.

Variants of B4 are the subject of the next assay. The conditions noted are these: with rasf1_human RASSF1, Q9NS23. The source holds these as a separate data set.
Consider R361H, for which the “effect of a mutation on the interaction” value is given as “with no effect”.

The next assay covers variants of B5. The conditions noted are these: with nkx28_human NKX2-8, O15522.
Take D351H: the “effect of a mutation on the interaction” value is on record as “with no effect”.

The variants in the next assay derive from B5. The conditions noted are these: with nkx28_human NKX2-8, O15522. This is another data set of the same source.
Consider R361C, for which the “effect of a mutation on the interaction” value is “with no effect”.

For the origin of these results see IntAct's records for PubMed 35512704.
